From publication PMC3399781 (Structure (London, England : 1993), 2010)

Molecular target: the molecule itself
Assay: AUC

B1: 2GS mGRFT (GRFT with GSGS inserted between Ser16 and Gly17) (natural protein)
chain: SLTHRKFGGSGGSPFSGSGSGLSSIAVRSGSYLDAIIIDGVHHGGSGGNLSPTFTFGSGEYISNMTIRSGDYIDNISFETNMGRRFGPYGGSGGSANTLSNVKVIQINGSAGDYLDSLDIYYEQY
Kd: 1170 µM
